The values below come from patent US20050049402A1 (Amgen, published 2005).

Assay [1] deals with T1, human TNFα (Tumor Necrosis Factor-alpha), soluble (human, UniProt P01375 77-233).
T1 construct: Recombinant (R&D 210-TA/CF) in screens; biotinylated in the limited antigen assay; also called hTNFα; H-TNFα
Kind of assay: KinExA, unknown antigen concentration method. The method, then:
(§1) The kinetic measurements of the anti-TNFα antibodies were evaluated using KinExA® and BIACORE® technologies. The KinExA® method involves solution-based determination of formal affinity measurements at equilibrium. To measure the binding kinetics of each human anti-TNFα antibody, two experiments in replicates of three were performed. In both experiments a known concentration of antigen was titrated and a different antibody concentration was added to each antigen titration and allowed to reach binding equilibrium. […] The results were analyzed by dual curve analysis. […] In addition, to negate the possibility of avidity effects, Fab fragments were generated by papain cleavage and the kinetic analysis was repeated (see Table 24).
For orientation: In KinExA the mixture passes briefly over coated beads that capture the unbound partner.

The next assay has as its target human TNFα R31Q mutant (human, UniProt P01375 77-233). Kind of assay: ELISA on chimeric/mutant TNFα. The text has this:
(§2) In order to define the binding site for different antibodies, a number of residues of hTNFα were mutated using site directed mutagenesis. A panel of antibodies was screened for binding by an ELISA assay. […] Histidine at position 73 was deleted, an example is illustrated in Table 19.
In general terms: An ELISA detects its analyte on a solid surface through an enzyme-linked reagent.

The target of a further assay is human TNFα R131Q mutant (human, UniProt P01375 77-233). Kind of assay: ELISA on chimeric/mutant TNFα.
Source text: as §2

For assay [2], the target named is T2, H/M HincII chimeric TNFα (human 1-91, murine 92-157) (human; mouse).
T2 construct: Murine range printed 92-157 (human-aligned); also called Hu/M Hin C l1
T2 chain: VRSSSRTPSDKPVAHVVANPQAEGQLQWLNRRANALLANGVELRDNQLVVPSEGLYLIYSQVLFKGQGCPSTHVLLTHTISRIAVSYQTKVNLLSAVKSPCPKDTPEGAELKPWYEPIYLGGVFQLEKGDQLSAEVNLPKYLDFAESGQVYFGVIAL
Put plainly: ELISA on chimeric/mutant TNFα.
Source text: as §2

The target of assay [3] is T3, H/M BglI chimeric TNFα (human 1-36, murine 37-157) (human; mouse, UniProt P06804 81-235).
T3 construct: Murine range is printed as 37-157 in human-aligned numbering; also called H/MBgl1; Hu/MBgl1
T3 chain: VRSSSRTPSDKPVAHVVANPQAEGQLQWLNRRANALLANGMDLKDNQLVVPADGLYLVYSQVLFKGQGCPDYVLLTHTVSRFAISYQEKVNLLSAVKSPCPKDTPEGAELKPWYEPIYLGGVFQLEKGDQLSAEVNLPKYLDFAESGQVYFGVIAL
Kind of assay: ELISA on chimeric/mutant TNFα.
Source text: as §2

The target in assay [4] is T4, H/M PvuII chimeric TNFα (human 1-125, murine 126-157) (human; mouse).
T4 construct: also called Hu/M PVu11
T4 chain: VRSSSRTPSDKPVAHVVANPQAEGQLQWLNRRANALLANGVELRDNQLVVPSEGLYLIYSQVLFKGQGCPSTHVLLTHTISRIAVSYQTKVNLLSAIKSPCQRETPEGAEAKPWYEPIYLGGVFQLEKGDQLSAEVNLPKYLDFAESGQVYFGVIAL
Kind of assay: ELISA on chimeric/mutant TNFα.
Source text: as §2

Assay [5] has as its target human TNFα R31Q, Q27E mutant (human, UniProt P01375 77-233). Kind of assay: ELISA on chimeric/mutant TNFα.
Source text: as §2

In assay [6] the target is T1, human TNFα (Tumor Necrosis …). Put plainly: cell-based or functional assay.
For assay [7] the target is unchanged. Put plainly: KinExA, Fab from papain cleavage. The method, then:
as §1

Assay [8] shares this target. Put plainly: cell-based or functional assay. The source holds these as a separate data set.
Assay [9] has the same target. Put plainly: KinExA, TNFα counted as three monomers. The method, then: as §1
Another assay addresses T5, mouse TNFα (mouse, UniProt P06804 80-235).
T5 construct: also called M TNFα; murine TNF
T5 sequence: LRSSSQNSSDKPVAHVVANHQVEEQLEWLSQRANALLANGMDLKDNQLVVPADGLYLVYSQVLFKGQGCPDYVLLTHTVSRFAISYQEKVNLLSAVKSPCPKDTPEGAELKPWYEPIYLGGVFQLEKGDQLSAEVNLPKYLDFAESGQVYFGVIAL
Put plainly: binding to chimeric TNF proteins.

For assay [10], the target named is T1, human TNFα (Tumor Necrosis …). Put plainly: KinExA, TNFα counted as one trimer. The protocol:
as §1

The next assay deals with T6, human GST-TNFα (human, UniProt P01375 77-233).
T6 construct: also called E. coli expressed soluble human TNF; not shown: GST fusion partner
Put plainly: ELISA, plate coated with 0.5 µg/ml human GST-TNFα, HRP goat anti-human IgG detection. The protocol:
(§3) Anti-TNFα antibodies were also tested for their ability to bind to soluble recombinant TNFα. Human and monkey (cynomolgous macaque) TNFα were expressed in E. coli as fusion proteins with GST. Binding was assessed by ELISA. […] Bound antibody was detected using an HRP-conjugated goat anti-human IgG antibody.

Assay [11] concerns the target transmembrane mutant TNFα expressed on the surface of CHO cells (UniProt P01375 1-233). Kind of assay: cell-based or functional assay.
Assay [12] has as its target T1, human TNFα (Tumor Necrosis …). Put plainly: cell-based or functional assay. The source holds these as a separate data set.
Assay [13] deals with T7, monkey (cynomolgous macaque) GST-TNFα (cynomolgous macaque, UniProt P79337 77-233).
T7 construct: also called E. coli expressed soluble cynomolgous macaque monkey TNF; monkey TNFα; not shown: GST fusion partner
Put plainly: ELISA, plate coated with 2 µg/ml monkey (cynomolgus macaque) GST-TNFα, HRP goat anti-human IgG detection. The method, then:
as §3

Assay [14] concerns the target T1, human TNFα (Tumor Necrosis …). Put plainly: cell-based or functional assay. The source holds these as a separate data set.
Assay [15] has as its target T2, H/M HincII chimeric TNFα (human 1-91, …). Kind of assay: ELISA on expressed TNFα constructs.
Assay [16] concerns the target T3, H/M BglI chimeric TNFα (human 1-36, …). Put plainly: ELISA on expressed TNFα constructs.
The target in assay [17] is T4, H/M PvuII chimeric TNFα (human 1-125, …). Put plainly: ELISA on expressed TNFα constructs.
The target of assay [18] is T1, human TNFα (Tumor Necrosis …). Put plainly: KinExA, TNFα counted as one trimer; KinExA, one trimer (52.5 kDa); lower bound of the Kd fit. The method, then:
as §1

The target is the same in assay [19]. Kind of assay: KinExA, TNFα counted as one trimer; KinExA in solution; TNFα site concentration as one trimer (52.5 kDa). The protocol: as §1
For assay [20] the target is unchanged. Put plainly: KinExA, TNFα counted as three monomers; KinExA in solution; TNFα site concentration as three monomers (17.5 kDa). The protocol: as §1
The target is the same in assay [21]. Kind of assay: KinExA, TNFα counted as three monomers; KinExA, three monomers (17.5 kDa); upper bound of the Kd fit. The method, then: as §1
For assay [22] the target is unchanged. Kind of assay: KinExA, TNFα counted as one trimer; KinExA, one trimer (52.5 kDa); upper bound of the Kd fit. The protocol: as §1

human TNFα R31Q mutant, sequence (P01375 77-233 R107Q): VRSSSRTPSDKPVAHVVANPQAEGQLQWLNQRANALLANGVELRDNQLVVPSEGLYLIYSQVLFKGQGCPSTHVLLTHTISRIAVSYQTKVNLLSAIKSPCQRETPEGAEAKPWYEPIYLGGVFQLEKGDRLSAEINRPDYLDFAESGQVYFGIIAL
transmembrane mutant TNFα expressed on the surface of CHO cells, sequence (P01375 whole entry, change not shown, form in doubt): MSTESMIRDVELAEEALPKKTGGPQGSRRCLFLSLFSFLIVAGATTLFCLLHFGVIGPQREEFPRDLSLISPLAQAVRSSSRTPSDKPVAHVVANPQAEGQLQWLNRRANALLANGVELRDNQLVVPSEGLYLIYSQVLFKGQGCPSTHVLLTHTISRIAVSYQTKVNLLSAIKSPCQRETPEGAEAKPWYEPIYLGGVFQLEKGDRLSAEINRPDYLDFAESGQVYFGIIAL

B1: Rabbit R014 (AB-TNFα-R014) (antibody, rabbit IgG1, V domains shown)
VH: QSLEESGGRLVTPGTPLTLTCTVSGIDLSSNTMGWFRRAPGKGLEWIGIIISSGTTYYASWVKGRFTISKTSTTVDLKITRPTTEDTATYFCARGWYEFNLWGPGTLVTVSS
VL: DVVMTQTPASVEAAVGGTVTIKCQASENIDILLAWYQQKVGQPPKLLIYRASKLASGAPSRFSGSGSGTEFTLTISDLECGDAATYYCQSNVGSTARSSYGNAFGGGTEVVVK
notes: Fully rabbit antibody, rabbit IgG1 heavy and kappa constant regions; cloned from well 7A4; also called RO14; Rabbit 014
In general, Kd refers to the equilibrium constant for the complex coming apart. On to B1, for which, in assay [1], the affinity, expressed as Kd, was 0.787 pM. In addition, the “Kd (M) High” value in [1] came out at 2.47e-12 M. Also, the “Kd (M) Low” value in assay [1] was 1.56e-13 M. The binding result (with human TNFα R31Q mutant; with human TNFα R131Q mutant; in [2]; in assay [3]; in assay [4]; in assay [5]) was “binds” each time. Also, the “Average IC50, TNF induced apoptosis on MCF-7 cells, 1 hour pre-incubation” value in assay [6] was determined as 14.2 pM.

B2: Rabbit R014 Fab (Fab, V domains shown)
VH: QSLEESGGRLVTPGTPLTLTCTVSGIDLSSNTMGWFRRAPGKGLEWIGIIISSGTTYYASWVKGRFTISKTSTTVDLKITRPTTEDTATYFCARGWYEFNLWGPGTLVTVSS
VL: DVVMTQTPASVEAAVGGTVTIKCQASENIDILLAWYQQKVGQPPKLLIYRASKLASGAPSRFSGSGSGTEFTLTISDLECGDAATYYCQSNVGSTARSSYGNAFGGGTEVVVK
notes: Fab made by papain cleavage of R014
With B2, in [7], the Kd was found to be 0.638 pM, the “Kd (M) High” value was 1.94e-10 M and the “Kd (M) Low” value was determined as 2.09e-15 M.

B3: 263 (antibody, human IgG1, V domains shown)
VH: EVQLVESGGGLIQPGGSLRLSCAASGFTVSRNYMSWVRQAPGKGLEWVSVIYSGDRTYYADSVKGRFTISRDNSKNTLYLQMNSLRAEDTAVYYCARGEGGFDYWGQGTLVTVSS
VL: EIVMTQSPATLSVSPGERATLSCRASQSVSSNLAWYQQKPGQAPRLLIHGASIRATGLPARFSGSGSGTEFTLTISSLQSEDFAVYYCQQYNYWWTFGQGTKVEIK
notes: XENOMAX derived, recombinant human IgG1 kappa; also called SC263
By EC50 (read off the curve) is commonly meant the concentration that produces a half-maximal response. Turning to B3, the “In vivo Potency (IC50), ALT, hTNFα/D-GalN hepatic injury in mice” value in assay [8] turned out to be 48000 pM. The “In vivo Potency (IC50), human TNFα-induced IL-6 in mice” value in [8] came out at 35000 pM. Further, the Kd was determined as 11.2 pM in [9] and 3.73 pM in [10]. For the same molecule, the binding result with mouse TNFα is on record as “no binding”; in the assay with human TNFα R31Q mutant it was “binds”; with human TNFα R131Q mutant, “binds”; in assay [5], “binds”; in assay [13], “no binding (tested: 100 ng/ml)”. For the same molecule, the “EC50 (read off the curve)” value with human GST-TNFα is around 3 ng/mL. The “ADCC (%)” value in assay [11] is 10%. The “CDC (%)” value in [11] was determined as 17%. Besides, the “Whole Blood IC50, TNFα-induced IL-8 production” value in [12] worked out at 524 pM. In assay [14], the “IC50 1 hr Pre-incubation, TNF induced apoptosis in MCF-7 cells” value was found to be 59.5 pM. The “IC50 18 hr Pre-incubation, TNF induced apoptosis in MCF-7 cells” value in assay [14] is 37 pM.

B4: 4.17 (hybridoma, IgG2) (antibody, V domains shown)
VH: QVQLVESGGGVVQPGRSLRLSCTTSGFTFSNYGMHWVRQAPGKGLEWVAVIWYDGSIKYYVDSVKGRFTISRDNSKNTLYLQMNSLRAEDTAVYYCAREKDCGGDCYSHYGMDVWGQGTTVTVSS
VL: DIQMTQSPSSLSASVGDRVTITCRASQGIRNDLGWYQQKPGKAPKRLIYAASSLQSGVPSRFSGSGSGTEFTLTISSLQPEDFATYYCLQHMSLPLTFGGGTKVEIK
notes: Hybridoma derived human IgG2 kappa
For the molecule B4, the binding result (in assay [15]; in assay [16]; in assay [17]; with human TNFα R131Q mutant) was “binds” each time.

B5: 3.2 (hybridoma, IgG2) (antibody, V domains shown)
VH: EVQLVQSGAEVKKPGESLKISCKTSEYSFTSYWIGWVRQMPGKGLEWMGIIYLGDSDTRYSPSFQGQVTISADKSISTAYLQWSSLKASDTAMYYCARSNWGLDYWGQGTLVTVSS
VL: QSVLTQPPSVSGAPGQRVTISCTGSSSNIGAGYDVHWYQQFPGTAPKLLIQGNSNRPSGVPDRFSGSKSGTSASLAITGLQAEDEADYYCQSYDSSLSGSVFGGGTKLTVL
notes: Hybridoma derived human IgG2, lambda light chain (V1-13/JL3); also called 3.2 Ab; 3.2.1
In the case of B5, the “Kd (M) Low” value in assay [18] was found to be 2.43e-12 M; in assay [9], 7.3e-12 M. Also, the results for the Kd in assay [19] and in assay [20] were 4.77 pM and 14.3 pM, respectively. The “Kd (M) High” value in [21] amounted to 2.3e-11 M; in [22], 7.6e-12 M.
